Experimental data: patent US7026443
Like-named read-outs stand apart in the source and are kept apart here.

Experiments:
HLA-B*0702 (human) [1] = experiment: competition with 125I-labeled standard probe peptide for purified HLA, gel filtration; conditions: for relative binding ratio: scale: ratio
HLA-B*3501 (human) [2] = experiment: as above; conditions: for relative binding ratio: scale: ratio
HLA-B*5101 (human) [3] = experiment: as above; conditions: for relative binding ratio: scale: ratio
HLA-B*5301 (human) [4] = experiment: as above; conditions: for relative binding ratio: scale: ratio
HLA-B*5401 (human) [5] = experiment: as above; conditions: for relative binding ratio: scale: ratio
HLA-B*0702 (human) [6] = experiment: competition with 125I-labeled standard peptide for purified HLA, gel filtration
HLA-B*3501 (human) [7] = experiment: as above
HLA-B*5101 (human) [8] = experiment: as above
HLA-B*5301 (human) [9] = experiment: as above
HLA-B*5401 (human) [10] = experiment: as above
[11] = molecular target: HLA-A*1101 (purified HLA class I molecule) (human); experiment: competition with 125I-labelled standard peptide for purified HLA-A*1101, gel filtration
HLA-A*0301 (human) [12] = experiment: competition with 125I-labelled standard peptide for purified HLA, gel filtration; conditions: remark: other sources report otherwise
HLA-A*1101 (human) [13] = experiment: as above; conditions: remark: other sources report otherwise
HLA-A*3301 (human) = experiment: as above; conditions: remark: other sources report otherwise
HLA-A*6801 (human) = experiment: as above; conditions: remark: other sources report otherwise
HLA-A*0301 (human) [14] = experiment: competition with 125I-labeled standard peptide for purified HLA, gel filtration
HLA-A*1101 (human) [15] = experiment: as above
HLA-A*0301 (human) [16] = experiment: competition with 125I-labeled standard probe peptide for purified HLA-A*0301, gel filtration
HLA-B*3501 (human) [17] = molecular target: HLA-B*3501 (human)
HLA-B*5101 (human) [18] = molecular target: HLA-B*5101 (human)
HLA-B*5301 (human) [19] = molecular target: HLA-B*5301 (human)
HLA-A*2402 (human) = experiment: competition with 125I-labelled standard peptide for purified HLA, gel filtration
[20] = molecular target: HLA-A*0201 (purified HLA class I molecule) (human)
HLA-B*0702 (human) [21] = molecular target: HLA-B*0702 (human)
[22] = remark: other sources report otherwise

B1: HPV16 E7 46 … (peptide)
peptide: EPDRAHYNIV
modifications: not checked
relative binding ratio (HLA-B*0702 (human) [1]; [22]): 0.0001 | relative binding ratio (HLA-B*3501 (human) [2]; [22]): 0.0001 | relative binding ratio (HLA-B*5101 (human) [3]; [22]): 0.0001 | relative binding ratio (HLA-B*5301 (human) [4]; [22]): 0.0001 | relative binding ratio (HLA-B*5401 (human) [5]; [22]): 0.0001

B2: HPV16 E1 308 … (peptide)
peptide: EPPKLRSTAA
modifications: not checked
binding affinity ratio (IC50 of standard peptide / IC50 of test peptide) (HLA-B*0702 (human) [6]): 0.0002 | binding affinity ratio (IC50 of standard peptide / IC50 of test peptide) (HLA-B*3501 (human) [7]): 0.0003 | binding affinity ratio (IC50 of standard peptide / IC50 of test peptide) (HLA-B*5101 (human) [8]): 0.0002 | binding affinity ratio (IC50 of standard peptide / IC50 of test peptide) (HLA-B*5301 (human) [9]): 0.0002 | binding affinity ratio (IC50 of standard peptide / IC50 of test peptide) (HLA-B*5401 (human) [10]): 0.02

B3: HPV18 E6 111-119 peptide … (peptide)
peptide: PLNPAEKLR
modifications: not checked
relative binding ratio (IC50 of standard peptide / IC50 of test peptide) [11]: 0.0005

B4: HPV16 E7 peptide … (peptide)
peptide: IVCPICSQK
modifications: not checked
binding affinity ratio (IC50 of standard peptide / IC50 of test peptide) (HLA-A*0301 (human) [12]): 0.0077 | binding affinity ratio (IC50 of standard peptide / IC50 of test peptide) (HLA-A*1101 (human) [13]): 0.0065 | binding affinity ratio (IC50 of standard peptide / IC50 of test peptide) (HLA-A*3301 (human)): 0.0016 | binding affinity ratio (IC50 of standard peptide / IC50 of test peptide) (HLA-A*6801 (human)): 0.01

B5: HPV16 E1 peptide … (position 202, 9 amino acids) (peptide)
peptide: NAKAAMLAK
modifications: not checked
relative binding ratio (IC50 of standard peptide / IC50 of test peptide) (HLA-A*0301 (human) [14]): 0.0005 | relative binding ratio (IC50 of standard peptide / IC50 of test peptide) (HLA-A*1101 (human) [15]): 0.0031 | binding affinity ratio (IC50 of the standard peptide / IC50 of the test peptide) (HLA-A*0301 (human) [16]): 0.0005

B6: HPV18 E1 97 peptide … (peptide)
peptide: SPLGERLEV
modifications: not checked
binding affinity ratio (IC50 of standard peptide / IC50 of test peptide) (HLA-B*0702 (human) [1]): 0.13 | binding affinity ratio (IC50 of standard peptide / IC50 of test peptide) (HLA-B*3501 (human) [2]): 0.0003 | binding affinity ratio (IC50 of standard peptide / IC50 of test peptide) (HLA-B*5101 (human) [3]): 0.0002 | binding affinity ratio (IC50 of standard peptide / IC50 of test peptide) (HLA-B*5301 (human) [4]): 0.0002 | binding affinity ratio (IC50 of standard peptide / IC50 of test peptide) (HLA-B*5401 (human) [5]): 0.0011

B7: HPV18 E6 59-67 peptide … (peptide)
peptide: SIPHAACHK
modifications: not checked
relative binding ratio (IC50 of standard peptide / IC50 of test peptide) [11]: 0.12

B8: HPV16 E6 65 … (peptide)
peptide: NPYAVCDKCL
modifications: not checked
relative binding ratio (HLA-B*0702 (human) [1]): 0.0001 | relative binding ratio (HLA-B*3501 (human) [2]): 0.0001 | relative binding ratio (HLA-B*5101 (human) [3]): 0.0001 | relative binding ratio (HLA-B*5301 (human) [4]): 0.0001 | relative binding ratio (HLA-B*5401 (human) [5]): 0.0001

B9: HPV16 E7 46 … (peptide)
peptide: EPDRAHYNI
modifications: not checked
relative binding ratio (HLA-B*0702 (human) [1]): 0.0001 | relative binding ratio (HLA-B*3501 (human) [2]): 0.0001 | relative binding ratio (HLA-B*5101 (human) [3]): 0.0031 | relative binding ratio (HLA-B*5301 (human) [4]): 0.0017 | relative binding ratio (HLA-B*5401 (human) [5]): 0.0002

B10: HPV31 E1 489 peptide … (SEQ ID NO: 34685) (peptide)
peptide: WLQPLADAK
modifications: not checked
relative binding ratio (IC50 of standard peptide / IC50 of test peptide) (HLA-A*0301 (human) [16]): 0.0005

B11: HPV18 E1 315 peptide … (peptide)
peptide: QPPKLRSSV
modifications: not checked
binding affinity ratio (IC50 of standard peptide / IC50 of test peptide) (HLA-B*3501 (human) [17]): 0.0003 | binding affinity ratio (IC50 of standard peptide / IC50 of test peptide) (HLA-B*5101 (human) [18]): 0.0002 | binding affinity ratio (IC50 of standard peptide / IC50 of test peptide) (HLA-B*5301 (human) [19]): 0.0002

B12: HPV18 E6 position 11, 11-mer … (peptide)
peptide: PYKLPDLCTEL
modifications: not checked
binding affinity ratio (IC50 of standard peptide / IC50 of test peptide) (HLA-A*2402 (human)): 0.0064

B13: HPV45 E1 peptide … (position 311, 9 amino acids) (peptide)
peptide: ALYWYRTGI
modifications: not checked
relative binding ratio (IC50 of standard peptide / IC50 of test peptide) [20]: 0.0032

B14: HPV16 E1 576 … (peptide)
peptide: WPYLHNRLVV
modifications: not checked
binding affinity ratio (IC50 of standard peptide / IC50 of test peptide) (HLA-B*0702 (human) [6]): 0.095 | binding affinity ratio (IC50 of standard peptide / IC50 of test peptide) (HLA-B*3501 (human) [7]): 0.0012 | binding affinity ratio (IC50 of standard peptide / IC50 of test peptide) (HLA-B*5101 (human) [8]): 0.074 | binding affinity ratio (IC50 of standard peptide / IC50 of test peptide) (HLA-B*5301 (human) [9]): 0.0002 | binding affinity ratio (IC50 of standard peptide / IC50 of test peptide) (HLA-B*5401 (human) [10]): 0.076

B15: HPV45 E1 433 peptide … (peptide)
peptide: RPIVQFLRY
modifications: not checked
binding affinity ratio (IC50 of standard peptide / IC50 of test peptide) (ratio relative to standard peptide) (HLA-B*0702 (human) [21]): 0.0033 | binding affinity ratio (IC50 of standard peptide / IC50 of test peptide) (ratio relative to standard peptide) (HLA-B*3501 (human) [17]): 0.04 | binding affinity ratio (IC50 of standard peptide / IC50 of test peptide) (ratio relative to standard peptide) (HLA-B*5301 (human) [19]): 0.023

B16: HPV45 E1 peptide … (position 532, 9 amino acids) (peptide)
peptide: ALDGNPISI
modifications: not checked
relative binding ratio (IC50 of standard peptide / IC50 of test peptide) [20]: 0.021
